{"source": "patent US20190328865A1", "biological_target": "dipeptidyl peptidase 4 (DPP4), cellular receptor on Huh-7 cells (human) (UniProt P27487)", "sequence (P27487 whole entry, the tested form may be a part)": "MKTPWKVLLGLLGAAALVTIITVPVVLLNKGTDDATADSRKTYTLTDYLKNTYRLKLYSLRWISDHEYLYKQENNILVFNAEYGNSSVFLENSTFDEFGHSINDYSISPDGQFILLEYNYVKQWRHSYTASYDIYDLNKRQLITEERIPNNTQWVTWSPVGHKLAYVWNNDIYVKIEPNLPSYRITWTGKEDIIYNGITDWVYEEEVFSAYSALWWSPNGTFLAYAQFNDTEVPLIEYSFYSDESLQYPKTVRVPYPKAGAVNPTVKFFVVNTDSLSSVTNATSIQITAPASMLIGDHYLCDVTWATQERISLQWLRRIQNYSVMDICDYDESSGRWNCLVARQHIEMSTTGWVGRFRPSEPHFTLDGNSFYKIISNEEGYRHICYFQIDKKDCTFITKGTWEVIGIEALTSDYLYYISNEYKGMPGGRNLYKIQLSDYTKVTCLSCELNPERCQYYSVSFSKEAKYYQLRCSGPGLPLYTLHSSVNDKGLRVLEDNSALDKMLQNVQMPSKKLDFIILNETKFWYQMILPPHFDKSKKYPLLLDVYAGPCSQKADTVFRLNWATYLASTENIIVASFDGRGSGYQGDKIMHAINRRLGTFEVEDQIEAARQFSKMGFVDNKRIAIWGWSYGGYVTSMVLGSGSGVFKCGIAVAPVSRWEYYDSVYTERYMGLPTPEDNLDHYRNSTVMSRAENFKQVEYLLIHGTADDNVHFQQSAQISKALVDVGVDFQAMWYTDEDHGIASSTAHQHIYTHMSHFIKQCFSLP", "assay": "cell-based or functional assay", "data": [{"substance": "S377-588-Fc (residues 377-588 of MERS-CoV S protein fused to Fc of human IgG) (Fc fusion)", "values": [{"measurement": "inhibition of CPE formation caused by MERS-CoV infection in Calu-3 cells", "result": 3, "unit": "µg/mL"}]}]}
